This note sets out measurements from US20240261333A1, “NOVEL TARGETS FOR ENHANCING ANTI-TUMOR IMMUNITY” (THE BROAD INSTITUTE, INC., priority 2021, published 2024).

In one experiment the target is CANX (human) (UniProt P27824). Briefly: co-IP/MS, anti-FLAG IP of C-FLAG B3GNT2 cell lysate.
The next experiment concerns the target RPL13A (human) (UniProt P40429). Described as above.
The target in the next experiment is TUBB (human) (UniProt P07437). Described as above.
The target of a further experiment is RCN2 (human) (UniProt Q14257). The description is as above.
A further experiment deals with SLC25A4 (human) (UniProt P12235). The experiment is described as above.
In the next experiment the target is PUM1 (human) (UniProt Q14671). Briefly: co-IP, IgG control, lysate of cells with N-FLAG B3GNT2; mass spectrometry.
Another experiment deals with ARPC4 (human) (UniProt P59998). The description is as above.
Another experiment addresses GGCT (human) (UniProt O75223). The description is as above.
The next experiment addresses CSE1L (human) (UniProt P55060). Described as above.
A further experiment has as its target HNRNPK (human) (UniProt P61978). The description is as above.
Another experiment addresses MYH11 (human) (UniProt P35749). Described as above.
In the next experiment the target is SPTAN1 (human) (UniProt Q13813). The description is as above.
For another experiment, the target named is LSM12 (human) (UniProt Q3MHD2). The description is as above.
Another experiment concerns the target SAMM50 (human) (UniProt Q9Y512). The experiment is described as above.
The next experiment has as its target T1, SERBP1 (human) (UniProt Q8NC51).
T1 sequence (looked up): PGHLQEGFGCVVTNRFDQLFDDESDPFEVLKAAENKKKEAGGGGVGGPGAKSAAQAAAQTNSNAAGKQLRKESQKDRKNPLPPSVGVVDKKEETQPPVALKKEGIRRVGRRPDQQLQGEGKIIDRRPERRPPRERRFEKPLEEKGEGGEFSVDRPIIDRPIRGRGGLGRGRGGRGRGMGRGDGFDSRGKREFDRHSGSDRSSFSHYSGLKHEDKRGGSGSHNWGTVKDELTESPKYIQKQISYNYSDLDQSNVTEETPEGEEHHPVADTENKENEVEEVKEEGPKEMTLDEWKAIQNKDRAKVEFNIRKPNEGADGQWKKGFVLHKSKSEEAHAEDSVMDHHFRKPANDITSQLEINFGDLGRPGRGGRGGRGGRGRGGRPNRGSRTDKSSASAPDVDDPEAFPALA
Described as above.

Another experiment deals with RBM39 (human) (UniProt Q14498). The description is as above.
The target of the next experiment is RPL13 (human) (UniProt P26373). The description is as above.
A further experiment concerns the target HADHB (human) (UniProt P55084). Described as above.
The target of a further experiment is RPL18 (human) (UniProt Q07020). The description is as above.
In the next experiment the target is RPS3 (human) (UniProt P23396). The description is as above.
A further experiment deals with T2, MOV10 (human) (UniProt Q9HCE1).
T2 sequence (looked up): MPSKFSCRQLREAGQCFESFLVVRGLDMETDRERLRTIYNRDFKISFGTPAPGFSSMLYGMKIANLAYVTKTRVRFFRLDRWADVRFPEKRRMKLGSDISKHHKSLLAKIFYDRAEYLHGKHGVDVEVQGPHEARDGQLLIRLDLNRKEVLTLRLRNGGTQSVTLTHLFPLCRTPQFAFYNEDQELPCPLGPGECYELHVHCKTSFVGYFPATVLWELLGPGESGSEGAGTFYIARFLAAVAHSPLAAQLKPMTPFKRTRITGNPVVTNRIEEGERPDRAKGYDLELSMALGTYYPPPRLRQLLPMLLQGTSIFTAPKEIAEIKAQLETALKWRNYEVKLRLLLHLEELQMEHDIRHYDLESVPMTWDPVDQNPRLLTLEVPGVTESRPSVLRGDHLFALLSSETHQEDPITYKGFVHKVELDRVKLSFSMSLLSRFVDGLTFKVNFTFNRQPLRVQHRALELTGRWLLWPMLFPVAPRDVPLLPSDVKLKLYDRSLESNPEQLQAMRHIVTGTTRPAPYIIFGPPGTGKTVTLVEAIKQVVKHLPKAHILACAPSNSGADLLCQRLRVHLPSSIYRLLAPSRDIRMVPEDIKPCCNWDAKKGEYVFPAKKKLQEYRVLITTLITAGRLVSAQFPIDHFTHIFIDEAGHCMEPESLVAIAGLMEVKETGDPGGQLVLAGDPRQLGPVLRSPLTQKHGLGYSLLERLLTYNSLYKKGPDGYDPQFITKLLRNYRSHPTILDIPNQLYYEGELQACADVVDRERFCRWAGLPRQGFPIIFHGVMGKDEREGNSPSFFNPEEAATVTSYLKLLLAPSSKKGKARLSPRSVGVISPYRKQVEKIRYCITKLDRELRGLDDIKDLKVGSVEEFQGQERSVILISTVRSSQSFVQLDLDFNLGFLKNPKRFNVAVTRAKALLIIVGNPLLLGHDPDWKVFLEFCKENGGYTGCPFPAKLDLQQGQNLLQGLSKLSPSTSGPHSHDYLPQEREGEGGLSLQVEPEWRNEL
The description is as above.

Another experiment has as its target CAT (human) (UniProt P04040). Described as above.

Chain of LSM12 (human) (Q3MHD2 2-195 limits assumed): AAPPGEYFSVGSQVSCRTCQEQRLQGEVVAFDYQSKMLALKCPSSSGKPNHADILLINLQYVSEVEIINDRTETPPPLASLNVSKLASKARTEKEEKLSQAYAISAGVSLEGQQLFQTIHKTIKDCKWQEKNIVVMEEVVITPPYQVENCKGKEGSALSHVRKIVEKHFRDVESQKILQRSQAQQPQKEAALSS
Chain of SAMM50 (human) (Q9Y512 whole entry): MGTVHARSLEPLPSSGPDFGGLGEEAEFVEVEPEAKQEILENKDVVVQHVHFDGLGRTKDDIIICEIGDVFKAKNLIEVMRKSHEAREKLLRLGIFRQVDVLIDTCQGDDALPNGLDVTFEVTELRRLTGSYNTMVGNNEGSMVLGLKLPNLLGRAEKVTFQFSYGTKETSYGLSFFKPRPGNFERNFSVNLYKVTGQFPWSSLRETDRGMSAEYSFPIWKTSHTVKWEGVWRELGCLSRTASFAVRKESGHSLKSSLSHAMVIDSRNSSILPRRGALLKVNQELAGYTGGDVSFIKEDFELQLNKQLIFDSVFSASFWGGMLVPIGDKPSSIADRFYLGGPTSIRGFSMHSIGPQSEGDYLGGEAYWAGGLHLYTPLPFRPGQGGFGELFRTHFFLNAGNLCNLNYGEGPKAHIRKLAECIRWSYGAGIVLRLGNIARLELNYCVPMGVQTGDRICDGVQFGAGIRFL
Chain of GGCT (human) (O75223 whole entry): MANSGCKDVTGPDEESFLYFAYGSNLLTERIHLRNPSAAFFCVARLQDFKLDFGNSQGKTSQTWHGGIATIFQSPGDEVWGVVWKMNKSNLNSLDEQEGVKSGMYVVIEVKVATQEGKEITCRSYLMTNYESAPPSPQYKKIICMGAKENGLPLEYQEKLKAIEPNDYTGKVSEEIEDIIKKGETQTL
Chain of RBM39 (human) (Q14498 other isoform, or with tags, fused parts or gaps limits assumed): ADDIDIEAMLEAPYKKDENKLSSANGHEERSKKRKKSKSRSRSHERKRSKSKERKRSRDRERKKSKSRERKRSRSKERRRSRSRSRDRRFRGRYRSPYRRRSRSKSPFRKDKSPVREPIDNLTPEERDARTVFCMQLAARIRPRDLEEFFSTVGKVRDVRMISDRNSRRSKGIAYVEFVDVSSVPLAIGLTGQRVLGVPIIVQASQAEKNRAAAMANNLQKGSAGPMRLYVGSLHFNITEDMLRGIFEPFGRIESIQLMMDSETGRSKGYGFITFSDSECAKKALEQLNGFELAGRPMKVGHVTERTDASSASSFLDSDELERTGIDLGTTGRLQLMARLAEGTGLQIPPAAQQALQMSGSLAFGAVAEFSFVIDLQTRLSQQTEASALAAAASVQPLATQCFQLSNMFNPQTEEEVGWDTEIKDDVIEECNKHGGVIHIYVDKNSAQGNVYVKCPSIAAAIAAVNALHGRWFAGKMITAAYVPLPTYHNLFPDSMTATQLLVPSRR
Chain of CAT (human) (P04040 2-527 limits assumed): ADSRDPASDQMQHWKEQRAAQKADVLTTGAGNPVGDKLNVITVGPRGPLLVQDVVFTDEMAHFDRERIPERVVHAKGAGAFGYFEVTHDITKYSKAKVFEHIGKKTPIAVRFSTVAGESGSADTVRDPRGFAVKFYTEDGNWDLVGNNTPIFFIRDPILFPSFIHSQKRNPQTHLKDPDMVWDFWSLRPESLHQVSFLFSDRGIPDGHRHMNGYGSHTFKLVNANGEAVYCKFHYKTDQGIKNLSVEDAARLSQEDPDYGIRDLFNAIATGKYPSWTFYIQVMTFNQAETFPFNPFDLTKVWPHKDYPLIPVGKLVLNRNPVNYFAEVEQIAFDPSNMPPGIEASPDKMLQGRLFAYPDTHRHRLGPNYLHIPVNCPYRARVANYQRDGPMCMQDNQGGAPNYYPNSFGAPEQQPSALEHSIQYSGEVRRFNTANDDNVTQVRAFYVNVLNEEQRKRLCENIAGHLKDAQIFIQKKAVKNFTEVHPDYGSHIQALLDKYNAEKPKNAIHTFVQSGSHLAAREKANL
Chain of CSE1L (human) (P55060 other isoform, or with tags, fused parts or gaps limits assumed): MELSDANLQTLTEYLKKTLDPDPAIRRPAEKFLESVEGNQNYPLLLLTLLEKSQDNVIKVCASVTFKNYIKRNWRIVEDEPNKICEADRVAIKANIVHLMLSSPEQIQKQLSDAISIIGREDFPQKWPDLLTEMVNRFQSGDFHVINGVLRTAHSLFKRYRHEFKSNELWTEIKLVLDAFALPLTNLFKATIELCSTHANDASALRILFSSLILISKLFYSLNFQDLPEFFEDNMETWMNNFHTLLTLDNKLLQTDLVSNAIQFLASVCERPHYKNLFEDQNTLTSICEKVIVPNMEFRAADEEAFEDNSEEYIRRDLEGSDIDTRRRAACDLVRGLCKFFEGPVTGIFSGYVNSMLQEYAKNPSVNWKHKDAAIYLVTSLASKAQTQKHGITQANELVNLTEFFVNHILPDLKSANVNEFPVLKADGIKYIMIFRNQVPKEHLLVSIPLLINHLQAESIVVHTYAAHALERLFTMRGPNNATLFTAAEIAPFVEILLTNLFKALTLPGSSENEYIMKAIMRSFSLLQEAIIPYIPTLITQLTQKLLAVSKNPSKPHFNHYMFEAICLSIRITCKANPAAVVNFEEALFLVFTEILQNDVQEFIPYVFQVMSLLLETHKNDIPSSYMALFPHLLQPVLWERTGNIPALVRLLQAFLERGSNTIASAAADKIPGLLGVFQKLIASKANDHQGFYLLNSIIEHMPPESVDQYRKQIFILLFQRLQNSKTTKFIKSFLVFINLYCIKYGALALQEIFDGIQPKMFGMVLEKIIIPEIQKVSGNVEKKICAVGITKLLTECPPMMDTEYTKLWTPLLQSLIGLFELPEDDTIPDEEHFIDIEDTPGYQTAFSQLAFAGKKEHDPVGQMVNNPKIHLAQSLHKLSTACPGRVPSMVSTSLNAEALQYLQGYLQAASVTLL
Chain of MYH11 (human) (P35749 other isoform, or with tags, fused parts or gaps limits assumed): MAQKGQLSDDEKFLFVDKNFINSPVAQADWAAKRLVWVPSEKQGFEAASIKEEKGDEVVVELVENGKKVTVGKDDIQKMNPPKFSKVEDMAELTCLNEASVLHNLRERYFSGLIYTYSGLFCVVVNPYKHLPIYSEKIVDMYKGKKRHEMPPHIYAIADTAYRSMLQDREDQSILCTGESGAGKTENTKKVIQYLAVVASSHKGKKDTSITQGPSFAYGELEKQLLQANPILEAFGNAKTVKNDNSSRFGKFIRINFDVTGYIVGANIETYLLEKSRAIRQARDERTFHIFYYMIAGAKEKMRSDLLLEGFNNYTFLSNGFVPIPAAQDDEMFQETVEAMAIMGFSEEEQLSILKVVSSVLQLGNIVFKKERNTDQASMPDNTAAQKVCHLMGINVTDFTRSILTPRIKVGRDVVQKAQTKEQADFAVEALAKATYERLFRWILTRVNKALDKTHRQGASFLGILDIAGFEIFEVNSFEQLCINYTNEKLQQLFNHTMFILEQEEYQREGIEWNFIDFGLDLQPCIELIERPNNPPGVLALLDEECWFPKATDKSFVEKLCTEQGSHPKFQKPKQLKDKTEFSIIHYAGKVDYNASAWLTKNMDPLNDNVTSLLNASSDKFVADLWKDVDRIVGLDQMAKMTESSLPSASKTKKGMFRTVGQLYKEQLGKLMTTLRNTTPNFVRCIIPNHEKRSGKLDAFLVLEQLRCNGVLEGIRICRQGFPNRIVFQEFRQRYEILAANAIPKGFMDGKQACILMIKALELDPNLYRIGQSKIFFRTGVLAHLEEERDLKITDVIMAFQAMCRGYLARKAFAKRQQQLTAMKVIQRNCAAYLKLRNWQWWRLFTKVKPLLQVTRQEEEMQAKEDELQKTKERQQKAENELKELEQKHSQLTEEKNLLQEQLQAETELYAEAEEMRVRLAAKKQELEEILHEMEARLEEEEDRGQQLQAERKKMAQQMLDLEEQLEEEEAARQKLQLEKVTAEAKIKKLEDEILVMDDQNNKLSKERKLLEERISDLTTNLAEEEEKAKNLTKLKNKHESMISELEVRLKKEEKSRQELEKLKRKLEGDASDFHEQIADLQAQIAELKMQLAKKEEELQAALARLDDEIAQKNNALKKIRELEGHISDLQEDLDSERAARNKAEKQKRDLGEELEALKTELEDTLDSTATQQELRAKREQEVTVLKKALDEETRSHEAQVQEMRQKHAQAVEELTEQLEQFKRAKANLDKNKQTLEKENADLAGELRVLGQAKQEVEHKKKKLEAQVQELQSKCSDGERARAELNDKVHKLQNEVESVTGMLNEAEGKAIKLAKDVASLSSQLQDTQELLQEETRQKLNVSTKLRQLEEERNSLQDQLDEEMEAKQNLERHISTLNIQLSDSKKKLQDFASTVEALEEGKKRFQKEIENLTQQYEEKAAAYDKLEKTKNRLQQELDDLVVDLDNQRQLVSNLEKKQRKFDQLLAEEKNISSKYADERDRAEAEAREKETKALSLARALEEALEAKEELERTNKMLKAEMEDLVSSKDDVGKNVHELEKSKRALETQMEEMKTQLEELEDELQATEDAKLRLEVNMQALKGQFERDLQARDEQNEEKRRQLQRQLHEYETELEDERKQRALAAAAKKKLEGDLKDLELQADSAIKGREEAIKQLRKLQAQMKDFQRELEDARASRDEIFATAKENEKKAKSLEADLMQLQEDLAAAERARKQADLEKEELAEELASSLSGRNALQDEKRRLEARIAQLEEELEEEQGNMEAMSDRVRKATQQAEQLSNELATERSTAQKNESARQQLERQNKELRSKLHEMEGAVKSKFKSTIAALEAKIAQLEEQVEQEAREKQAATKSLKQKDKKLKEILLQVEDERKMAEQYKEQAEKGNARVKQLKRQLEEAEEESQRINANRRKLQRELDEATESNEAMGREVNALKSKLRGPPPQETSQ
Chain of SLC25A4 (human) (P12235 2-298 limits assumed): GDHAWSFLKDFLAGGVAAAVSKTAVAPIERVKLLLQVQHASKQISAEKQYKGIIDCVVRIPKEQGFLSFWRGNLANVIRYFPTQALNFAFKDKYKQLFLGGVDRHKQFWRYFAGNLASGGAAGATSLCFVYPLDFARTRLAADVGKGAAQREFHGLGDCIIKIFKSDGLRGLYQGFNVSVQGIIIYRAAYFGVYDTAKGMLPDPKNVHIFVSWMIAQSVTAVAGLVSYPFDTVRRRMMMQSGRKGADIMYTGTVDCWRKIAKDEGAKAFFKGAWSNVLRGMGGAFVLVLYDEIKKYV

As to “C-terminal FLAG tagged B3GNT2 (from UniProt Q9NY97 1-397) (enzyme)”, the co-IP mass spectrometry count in the experiment with CANX (human) came to 11; with RPL13A (human), 13; with TUBB (human), 117; with RCN2 (human), 16; in the experiment with SLC25A4 (human), 14.
For the substance “IgG control (Millipore Sigma 12-371) (antibody)”, the co-IP mass spectrometry count with PUM1 (human) was 0; with ARPC4 (human) it was 0; with GGCT (human), 0; in the experiment with CSE1L (human), 0; with HNRNPK (human), 8; in the experiment with MYH11 (human) it was 3. In addition, the co-IP mass spectrometry count with SPTAN1 (human) turned out to be 0; with LSM12 (human) it was 2; in the experiment with SAMM50 (human), 0; with SERBP1 (human), 4; with RBM39 (human), 5; in the experiment with RPL13 (human), 6. In addition, the co-IP mass spectrometry count with HADHB (human) worked out at 0; with RPL18 (human) it was 5; with RPS3 (human), 13; with MOV10 (human) it was 3; with CAT (human), 2.
